Substrate: O=[N+]([O-])c1ccc(O[C@@H]2O[C@H](CO)[C@@H](O)[C@H](O)[C@H]2O)cc1
Experiment: purified protein
Conditions: 50 mM sodium acetate pH 5.5, 55 °C

B1: AoBgl (Aspergillus oryzae exo-β-(1,3) glucanase) (Aspergillus oryzae RIB40) (protein)
chain: SRLDPRASSFDYNGEKVRGVNLGGWLVLEPWITPSIFDAAGAEAVDEWSLTKILGKEEAEARLSAHWKSFVSAGDFQRMADAGLNHVRIPIGYWALGPLEGDPYVDGQLEYLDKAVEWAGAAGLKVLIDLHGAPGSQNGFDNSGRRGAIQWQQGDTVEQTLDAFDLLAERYLGSDTVAAIEAINEPNIPGGVDQGKLQEYYGSVYGIVNKYNAGTSVVYGDGFLPVESWNGFKTEGSKVVMDTHHYHMFDNGLIAMDIDSHIDAVCQFAHQHLEASDKPVIVGEWTGAVTDCAKYLNGKGNGARYDGSYAADKAIGDCSSLATGFVSKLSDEERSDMRRFIEAQLDAFELKSGWVFWTWKTEGAPGWDMSDLLEAGVFPTSPDDREFPKQC
B1 gave a Km of 5.78 mM.
